{"source": "paper PMC7261152", "about": "(Nucleic Acids Research, 2020)", "target": "T1, human BCMA-Fc fusion protein (human, UniProt Q02223 1-54)", "T1 sequence (looked up)": "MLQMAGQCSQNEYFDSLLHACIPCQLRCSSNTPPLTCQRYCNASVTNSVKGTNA", "assay": "ELISA"}
{"binder": "anti-BCMA DVD-IgG1 (2) (bispecific antibody) light: DIQMTQSPSSLSASVGDRVTITCSASQDISNYLNWYQQKPGKAPKLLIYYTSNLHSGVPSRFSGSGSGTDFTLTISSLQPEDFATYYCQQYRKLPWTFGQGTKLEIKASTKGPELQMTQSPSSLSASVGDRVTITCRSSQSLLHTYGSPYLNWYLQKPGQSPKLLIYKVSNRFSGVPSRFSGSGSGTDFTLTISSLQPEDFAVYFCSQGTHLPYTFGGGTKVEIKRTVAAPSVFIFPPSDEQLKSGTASVVCLLNNFYPREAKVQWKVDNALQSGNSQESVTEQDSKDSTYSLSSTLTLSKADYEKHKVYACEVTHQGLSSPVTKSFNRGEC heavy: not shown", "values": [{"measurement": "binding result", "value": "binds"}]}
